In the supplement of paper PMC10567573:

B1: C10orf62 (parent)
chain: MLWVQRKRRRKETSECPSDKDKSP
B2: PPFIA4 (parent)
chain: VMTLPSDLRKHRRKLLSPVSREEN

Variants of: B1
Assay: protein stability index of a GFP-peptide fusion (GPS, HEK-293T) (PSI 1-6); higher = more stable
Details: c terminus: a fixed tail appended
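Also: lentivirally expressed fusions sorted by FACS into six bins by GFP to DsRed ratio, PSI derived from sequencing read proportions per bin multiplied by bin number.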

**Q.** For MLWVQRKRRRKETSEQPSDKDKSP [C16Q], which protein stability index is on record?
**A.** 3.75

**Q.** With MLWVQRKRRRKETSEFPSDKDKSP [C16F] as the variant, how does the protein stability index read?
**A.** 2.29

**Q.** For MLWVQRKRRRKETSEWPSDKDKSP [C16W], which protein stability index is on record?
**A.** 2.16

**Q.** With MLWVQRKRRRKETSEHPSDKDKSP [C16H] as the variant, how does the protein stability index read?
**A.** 3.11

**Q.** For MLWVQRKRRRKETSELPSDKDKSP [C16L], which protein stability index is on record?
**A.** 2.53

**Q.** Which protein stability index does the source give for MLWVQRKRRRKETSEMPSDKDKSP [C16M] here?
**A.** 3.84

**Q.** With MLWVQRKRRRKETYECPSDKDKSP [S14Y] as the variant, how does the protein stability index read?
**A.** 2.44

**Q.** With MLWVQRKRRRKETAECPSDKDKSP [S14A] as the variant, how does the protein stability index read?
**A.** 3.82

**Q.** With MLWVQRKRRRIETSECPSDKDKSP [K11I] as the variant, how does the protein stability index read?
**A.** 2.9

**Q.** Which protein stability index does the source give for MLWVQRKRRRNETSECPSDKDKSP [K11N] here?
**A.** 3.11

**Q.** For MFWVQRKRRRKETSECPSDKDKSP [L2F], which protein stability index is on record?
**A.** 1.33

**Q.** Which protein stability index does the source give for MPWVQRKRRRKETSECPSDKDKSP [L2P] here?
**A.** 4.59

**Q.** With MNWVQRKRRRKETSECPSDKDKSP [L2N] as the variant, how does the protein stability index read?
**A.** 3.93

**Q.** Which protein stability index does the source give for MHWVQRKRRRKETSECPSDKDKSP [L2H] here?
**A.** 3.52

Variants of: B2
Assay: as above
Details: c terminus: a fixed tail appended

**Q.** Which protein stability index does the source give for VMTLPSDLRKHRRKLLSPVEREEN [S20E] here?
**A.** 4.26

**Q.** For VMTLPSDLRKHRRKLLSPVLREEN [S20L], which protein stability index is on record?
**A.** 3.44

**Q.** With VMTLPSDLRKHRRKLLSPVWREEN [S20W] as the variant, how does the protein stability index read?
**A.** 2.63

**Q.** For QMTLPSDLRKHRRKLLSPVSREEN [V1Q], which protein stability index is on record?
**A.** 4.35

**Q.** With CMTLPSDLRKHRRKLLSPVSREEN [V1C] as the variant, how does the protein stability index read?
**A.** 3.81

**Q.** For KMTLPSDLRKHRRKLLSPVSREEN [V1K], which protein stability index is on record?
**A.** 3.81

**Q.** Which protein stability index does the source give for SMTLPSDLRKHRRKLLSPVSREEN [V1S] here?
**A.** 4.27

**Q.** For VMCLPSDLRKHRRKLLSPVSREEN [T3C], which protein stability index is on record?
**A.** 3.56

**Q.** Which protein stability index does the source give for VMRLPSDLRKHRRKLLSPVSREEN [T3R] here?
**A.** 3.07

**Q.** With VMGLPSDLRKHRRKLLSPVSREEN [T3G] as the variant, how does the protein stability index read?
**A.** 3.99

**Q.** Which protein stability index does the source give for VMTLPSDLRKHRMKLLSPVSREEN [R13M] here?
**A.** 3.12

**Q.** For VMTLPSDLRKHREKLLSPVSREEN [R13E], which protein stability index is on record?
**A.** 4.59

**Q.** For VMTLPSDLRKHRQKLLSPVSREEN [R13Q], which protein stability index is on record?
**A.** 4.27

**Q.** With VMTLPSDLRKHRRKLWSPVSREEN [L16W] as the variant, how does the protein stability index read?
**A.** 3.09

**Q.** Which protein stability index does the source give for VMTLPSDLRKHRRKLESPVSREEN [L16E] here?
**A.** 4.29

**Q.** For VMTLPSDLRKHRRKLHSPVSREEN [L16H], which protein stability index is on record?
**A.** 3.89

**Q.** For VMTLPSDLRKKRRKLLSPVSREEN [H11K], which protein stability index is on record?
**A.** 3.44

**Q.** Which protein stability index does the source give for VMTLPSDLRKPRRKLLSPVSREEN [H11P] here?
**A.** 4.4

**Q.** Which protein stability index does the source give for VMTLPSDLRKCRRKLLSPVSREEN [H11C] here?
**A.** 3.69

**Q.** With VMTLPSDLRKRRRKLLSPVSREEN [H11R] as the variant, how does the protein stability index read?
**A.** 3.99

**Q.** With VMTLPSDLRKHRRKLLSSVSREEN [P18S] as the variant, how does the protein stability index read?
**A.** 4.07

**Q.** With VMTLPSDLRKHRRKLLSDVSREEN [P18D] as the variant, how does the protein stability index read?
**A.** 4.7

**Q.** With VMTLPSDLRKHRRKLLSLVSREEN [P18L] as the variant, how does the protein stability index read?
**A.** 3.44

**Q.** Which protein stability index does the source give for VMTLPSDLRKHRRKLLSIVSREEN [P18I] here?
**A.** 3.33

**Q.** For VMTLPSDPRKHRRKLLSPVSREEN [L8P], which protein stability index is on record?
**A.** 3.84

**Q.** Which protein stability index does the source give for VMTLPSDQRKHRRKLLSPVSREEN [L8Q] here?
**A.** 4.05

**Q.** Which protein stability index does the source give for VMTLPSDLRMHRRKLLSPVSREEN [K10M] here?
**A.** 3.46

**Q.** For VMTLPSDLRIHRRKLLSPVSREEN [K10I], which protein stability index is on record?
**A.** 3.25

**Q.** Which protein stability index does the source give for VMTLPSDLRRHRRKLLSPVSREEN [K10R] here?
**A.** 3.95

**Q.** With VMTLPSDLGKHRRKLLSPVSREEN [R9G] as the variant, how does the protein stability index read?
**A.** 4.46

**Q.** For VMTLPSDLRKHRRKLLSPVSREED [N24D], which protein stability index is on record?
**A.** 4.33

**Q.** With VMTLPSDLRKHRRKLLSPVSREEW [N24W] as the variant, how does the protein stability index read?
**A.** 2.99

**Q.** For VMTLPSDLRKHRRMLLSPVSREEN [K14M], which protein stability index is on record?
**A.** 3.65

**Q.** Which protein stability index does the source give for VMTLPSDLRKHRRTLLSPVSREEN [K14T] here?
**A.** 4.01

**Q.** Which protein stability index does the source give for VMTLPSDLRKHRRILLSPVSREEN [K14I] here?
**A.** 3.1

**Q.** Which protein stability index does the source give for VMTLPSDLRKHRRQLLSPVSREEN [K14Q] here?
**A.** 3.94

**Q.** With VMTLPSDLRKHRRALLSPVSREEN [K14A] as the variant, how does the protein stability index read?
**A.** 3.61

**Q.** With VMTLPSRLRKHRRKLLSPVSREEN [D7R] as the variant, how does the protein stability index read?
**A.** 3.31

**Q.** For VMTLPSNLRKHRRKLLSPVSREEN [D7N], which protein stability index is on record?
**A.** 3.39

**Q.** Which protein stability index does the source give for VMTLPSDLRKHRRKLLSPVSIEEN [R21I] here?
**A.** 3.9

**Q.** With VMTLPSDLRKHRRKLLSPVSMEEN [R21M] as the variant, how does the protein stability index read?
**A.** 4.09

**Q.** With VMTLPSDLRKHRRKLLSPVSGEEN [R21G] as the variant, how does the protein stability index read?
**A.** 4

**Q.** For VMTLPSDLRKHRRKLLSPVSKEEN [R21K], which protein stability index is on record?
**A.** 4.44

**Q.** Which protein stability index does the source give for VMTLKSDLRKHRRKLLSPVSREEN [P5K] here?
**A.** 3.4

**Q.** With VMTLRSDLRKHRRKLLSPVSREEN [P5R] as the variant, how does the protein stability index read?
**A.** 4

**Q.** For VMTLGSDLRKHRRKLLSPVSREEN [P5G], which protein stability index is on record?
**A.** 3.01

**Q.** For VMTLVSDLRKHRRKLLSPVSREEN [P5V], which protein stability index is on record?
**A.** 2.76

**Q.** With VMTLISDLRKHRRKLLSPVSREEN [P5I] as the variant, how does the protein stability index read?
**A.** 2.12

**Q.** Which protein stability index does the source give for VMTLSSDLRKHRRKLLSPVSREEN [P5S] here?
**A.** 3.08

**Q.** For VMTLPIDLRKHRRKLLSPVSREEN [S6I], which protein stability index is on record?
**A.** 3.04

**Q.** For VMTLPEDLRKHRRKLLSPVSREEN [S6E], which protein stability index is on record?
**A.** 3.85

**Q.** Which protein stability index does the source give for VMTLPQDLRKHRRKLLSPVSREEN [S6Q] here?
**A.** 3.63

**Q.** Which protein stability index does the source give for VMTLPHDLRKHRRKLLSPVSREEN [S6H] here?
**A.** 3.52

**Q.** For VMTLPTDLRKHRRKLLSPVSREEN [S6T], which protein stability index is on record?
**A.** 3.52

**Q.** With VFTLPSDLRKHRRKLLSPVSREEN [M2F] as the variant, how does the protein stability index read?
**A.** 3.19

**Q.** With VHTLPSDLRKHRRKLLSPVSREEN [M2H] as the variant, how does the protein stability index read?
**A.** 4.02

**Q.** With VPTLPSDLRKHRRKLLSPVSREEN [M2P] as the variant, how does the protein stability index read?
**A.** 3.93

**Q.** With VTTLPSDLRKHRRKLLSPVSREEN [M2T] as the variant, how does the protein stability index read?
**A.** 4.46

**Q.** Which protein stability index does the source give for VVTLPSDLRKHRRKLLSPVSREEN [M2V] here?
**A.** 3.46

**Q.** Which protein stability index does the source give for VKTLPSDLRKHRRKLLSPVSREEN [M2K] here?
**A.** 3.82

**Q.** With VMTLPSDLRKHMRKLLSPVSREEN [R12M] as the variant, how does the protein stability index read?
**A.** 3.47

**Q.** For VMTLPSDLRKHKRKLLSPVSREEN [R12K], which protein stability index is on record?
**A.** 3.81

**Q.** Which protein stability index does the source give for VMTLPSDLRKHPRKLLSPVSREEN [R12P] here?
**A.** 4.34

**Q.** For VMTLPSDLRKHHRKLLSPVSREEN [R12H], which protein stability index is on record?
**A.** 3.92

**Q.** For VMTLPSDLRKHRRKQLSPVSREEN [L15Q], which protein stability index is on record?
**A.** 3.83

**Q.** Which protein stability index does the source give for VMTLPSDLRKHRRKLLSPVSREHN [E23H] here?
**A.** 3.41

**Q.** Which protein stability index does the source give for VMTLPSDLRKHRRKLLSPVSREGN [E23G] here?
**A.** 2.94

**Q.** With VMTLPSDLRKHRRKLLSPVSREAN [E23A] as the variant, how does the protein stability index read?
**A.** 3.04

**Q.** With VMTLPSDLRKHRRKLLSPVSREKN [E23K] as the variant, how does the protein stability index read?
**A.** 3.72

**Q.** Which protein stability index does the source give for VMTLPSDLRKHRRKLLSPDSREEN [V19D] here?
**A.** 4.57

**Q.** Which protein stability index does the source give for VMTLPSDLRKHRRKLLSPFSREEN [V19F] here?
**A.** 2.85

**Q.** For VMTLPSDLRKHRRKLLSPGSREEN [V19G], which protein stability index is on record?
**A.** 4.31

**Q.** Which protein stability index does the source give for VMTLPSDLRKHRRKLLSPPSREEN [V19P] here?
**A.** 4.53

**Q.** For VMTLPSDLRKHRRKLLSPISREEN [V19I], which protein stability index is on record?
**A.** 3.8

**Q.** With VMTLPSDLRKHRRKLLSPVSRPEN [E22P] as the variant, how does the protein stability index read?
**A.** 2.85

**Q.** With VMTDPSDLRKHRRKLLSPVSREEN [L4D] as the variant, how does the protein stability index read?
**A.** 4.14

**Q.** For VMTPPSDLRKHRRKLLSPVSREEN [L4P], which protein stability index is on record?
**A.** 4.32

**Q.** Which protein stability index does the source give for VMTCPSDLRKHRRKLLSPVSREEN [L4C] here?
**A.** 4.31

**Q.** With VMTFPSDLRKHRRKLLSPVSREEN [L4F] as the variant, how does the protein stability index read?
**A.** 3.4

**Q.** With VMTLPSDLRKHRRKLLLPVSREEN [S17L] as the variant, how does the protein stability index read?
**A.** 3.73
